Consider 2 molecules from patent US20150355184A1 (Merck Sharp & Dohme, published 2015).

Assay [1] concerns the target T1, human PD-L1 expressed on cells (hPD-L1-CHOK1 / human PD-L1-CHO transfectants, LOX melanoma cells, human … (human, UniProt Q9NZQ7 19-290)).
T1 construct: Cell surface PD-L1 on transfected CHO cells, on LOX melanoma cells or in FFPE tissue and cell pellets; also called human Programmed Death Ligand 1; mature PD-L1
The assay is described as follows: flow cytometry on hPD-L1 positive LOX melanoma cells, 1 microgram/ml antibody, against isotype control mouse antibody. An excerpt:
Another experiment assessed the binding specificity of 20C3 and 22C3 for hPD-L1-expressing cells. HT144 cells which were known to be negative for expression of hPD-L1 by mRNA analysis (qPCR) and LOX melanoma cells known to express high levels of hPD-L1 mRNA (qPCR) were stained with 1 microgram/ml of purified mouse IgG from seven hybridomas generated in the experiments described in Example 1 above. An irrelevant isotype control mouse antibody was also used at the identical concentration. A fluorescent-labeled anti-mouse secondary antibody was used to detect the primary mouse antibodies. After staining and repeated washing, the cells were analyzed by flow cytometry, with median fluorescent intensities calculated for the population (>10,000 events collected).
20C3 and 22C3 as well as other hPD-L1 antibodies were employed as flow cytometric reagents to detect cell surface hPD-L1. The significant right shift of both the 20C3 and 22C3 histogram curves (FIG. 6A) as compared to the isotype control antibody curve reflects selective detection of hPD-L1 on the hPD-L1-positive LOX melanoma cell line.
Background: A flow cytometer gives signals particle by particle.

Assay [2] deals with T2, mouse PD-L1 (mouse, UniProt Q9EP73 19-238, limits assumed).
T2 construct: Tested in 'a similar ELISA experiment'
Briefly: ELISA similar to the cell-based ELISA. (In general: An ELISA detects its analyte on a solid surface through an enzyme-linked reagent.)

Changes are numbered by the printed parent chain. Numbers in names are those of the source.

T2 sequence (Q9EP73 19-238 limits assumed): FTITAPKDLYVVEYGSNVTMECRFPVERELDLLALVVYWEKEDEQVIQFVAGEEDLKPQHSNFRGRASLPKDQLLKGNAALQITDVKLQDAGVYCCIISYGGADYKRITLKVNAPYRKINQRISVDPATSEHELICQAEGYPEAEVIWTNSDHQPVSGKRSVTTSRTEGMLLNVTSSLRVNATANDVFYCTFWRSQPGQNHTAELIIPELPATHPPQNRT
T1 sequence (Q9NZQ7 19-290 limits assumed): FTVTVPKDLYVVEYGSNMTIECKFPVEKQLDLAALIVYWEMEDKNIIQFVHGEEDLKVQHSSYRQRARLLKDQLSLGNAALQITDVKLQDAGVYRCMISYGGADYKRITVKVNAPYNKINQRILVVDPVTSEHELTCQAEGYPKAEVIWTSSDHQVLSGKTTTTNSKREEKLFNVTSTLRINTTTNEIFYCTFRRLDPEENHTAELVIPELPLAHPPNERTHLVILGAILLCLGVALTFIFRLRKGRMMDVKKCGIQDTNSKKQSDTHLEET

B1: Monoclonal Antibody MEB037.20C3 (antibody, mouse IgG1, V domains shown)
VH: QVQVQQSGAELAEPGASVKMSCKASGYIFTSYWMHWLKQRPGQGLEWIGYINPSSDYNEYSEKFMDKATLTADKASTTAYMQLISLTSEDSAVYYCARSGWLVHGDYYFDYWGQGTTLTVSS
VL: DIVMSQSPSSLAVSAGEKVTMSCKSSQSLLNSRTRKNYLAWYQQKPGQSPKLLIYWASTRESGVPDRFTGSGSGTDFTLTISSVQAEDLAVYYCQQSYDVVTFGAGTKLELK
notes: Mouse IgG1 from hybridoma; also called antibody 20C3; antibody produced by hybridoma subclone MEB037.20C3.116
For the molecule B1, in assay [1], the “fold increase in MFI compared to isotype” value is at least 10 fold. Besides, the binding result in assay [2] is given as “no binding”.

B2: Monoclonal Antibody MEB037.22C3 (antibody, V domains shown)
VH: QVHLQQSGAELAKPGASVKMSCKASGYTFTSYWIHWIKQRPGQGLEWIGYINPSSGYHEYNQKFIDKATLTADRSSSTAYMHLTSLTSEDSAVYYCARSGWLIHGDYYFDFWGQGTTLTVSS
VL: B1 VL with S22T, N31H, S32T, R33S, Q95K
modifications: N-terminal residue of the mature heavy chain is either glutamine or pyro-glutamate (pE)
notes: Mouse IgG1 from hybridoma (allotype S414R of a mouse IgG1); also called antibody 22C3; antibody produced by hybridoma subclone MEB037.22C3.138
For the molecule B2, in assay [1], the “fold increase in MFI compared to isotype” value was at least 10 fold. Also, in assay [2], the binding result is reported as “no binding”.
